According to patent publication US10597674B2, “HPPD variants and methods of use” (BASF Agricultural Solutions Seed, US LLC, priority 2015, dated 2020):
Where two headings read alike, the source gives them in different places.

Tested on: HPPD polypeptides (wild-type SEQ ID NO:1 and mutants)
Protocol: For the generation of crude HPPD polypeptide extract in micro titer plates (MTP) for the determination of residual activity in inhibition assays, cells were grown in 40 or 150 μl LB medium containing 1% Glucose (Merck, Darmstadt, Germany) and 100 μg/ml ampicillin in a standard 96 well plate (Thermo Fisher Scientific, Waltham, USA) incubated for about 18 h in a humidity incubator at 37° C.
30 μl of this starter culture were added to 600 μl LB medium containing 100 μg/ml ampicillin and 150 mM Hepes (Merck, Darmstadt, Germany) as inoculum for the expression culture in 96 well plates (2 ml deep wells; HJ Bioanalytik, Erkelenz, Germany) The plates were sealed by an aluminium foil, and cells were incubated for 5 h at 37° C. on a plate shaker at 750 rpm. The expression was induced by addition of IPTG in a final concentration of 1 mM followed by further sealed incubation for about 18 h at 30° C. on a plate shaker at 750 rpm.
Cells were harvested by centrifugation at 4° C., 2500 g for 15 min discarding the supernatant. Cell pellets were stored at −80° C. and lysed in 250 μl 1× BugBuster® (Merck, Darmstadt, Germany) in 140 mM Tris (pH 7.8), with 1:25000 diluted BNase® (Qiagen, Hilden, Germany) by incubation of the resuspended cells for 30 min at 4° C. and 1000 rpm. Lysates were clarified by centrifugation for 15 min at 4° C., 2500 g, and 150 μl supernatant were transferred in standard 96 well plate (Thermo Fisher Scientific, Waltham, USA) for subsequent testing in quadruplets.
The activity of HPPD polypeptides was determined in absence or presence of HPPD inhibitors using the coupled HPPD activity assay (FIG. 1).
For the determination of the residual activity, the apparent kinetic constant (kapp) of the determined substrate conversion was measured as kinetic changes in absorbance at 320 nm in a coupled assay, in that homogentisate (HGA) formed by HPPD from HPP is directly converted into the well absorbing molecule maleylacetoacetate (MAA) by a second enzyme homogentisate dioxygenase (HGD), applied in excess uniformly in all assays (see FIG. 1). The measurements were performed in 384 micro titer plates (Greiner Bio-One GmbH, Frickenhausen, Germany) by plate readers (Tecan infinite M1000 or M1000PRO, Tecan, Männedorf, Switzerland). The kcat/kM ratio of an enzymatic activity is proportional to the apparent kinetic constant kapp and is proportional to kcat/kM*[E] ([E]=enzyme concentration). […] As both kapp measurements in the presence and absence of inhibitor were performed by use of the identical enzyme sample, crude or purified, and thereby at the same enzyme concentration, the enzyme concentration eliminates from the calculation of residual activity and the ratio of both kapp directly indicates the change of kM due to the inhibition.

[1] = in the presence of Cmpd. 1, 15 μM inhibitor, high substrate concentration, kapp normalized to kapp without inhibitor
[2] = in the presence of Cmpd. 1, 15 μM inhibitor, high substrate concentration, total change in signal normalized to no inhibitor
[3] = in the presence of Cmpd. 2, 15 μM inhibitor, high substrate concentration, kapp normalized to kapp without inhibitor
[4] = in the presence of Cmpd. 2, 15 μM inhibitor, high substrate concentration, total change in signal normalized to no inhibitor
[5] = in the presence of diketonitrile (DKN), 60 μM inhibitor, high substrate concentration, kapp normalized to kapp without inhibitor
[6] = in the presence of diketonitrile (DKN), 60 μM inhibitor, high substrate concentration, total change in signal normalized to no inhibitor
[7] = in the presence of mesotrione (MST), 60 μM inhibitor, high substrate concentration, kapp normalized to kapp without inhibitor
[8] = in the presence of mesotrione (MST), 60 μM inhibitor, high substrate concentration, total change in signal normalized to no inhibitor
[9] = kapp in presence of 50 μM Cmpd. 1, normalised to kapp without inhibitor, low substrate concentration
[10] = total change in signal in presence of 50 μM Cmpd. 1, normalised to that without inhibitor, low substrate concentration

CS(=O)(=O)c1ccc(C(=O)C2C(=O)CCCC2=O)c([N+](=O)[O-])c1 [mesotrione, 2-[4-(methylsulfonyl)-2-nitrobenzoyl]-1,3-cyclohexanedione, reference compound]
Residual activity [1]: 9%
Residual turnover [2]: 9%
Residual activity [3]: 16%
Residual turnover [4]: 22%
Residual activity [5]: 17%
Residual turnover [6]: 17%
Residual activity [7]: 13%
Residual turnover [8]: 17%

B1: 16 (protein)
chain: MADLYENPMGLMGFEFIEFASPTPGTLEPIFEIMGFTKVATHRSKNVHLYRQGEINLILNNEPNSIASYFAAEHGPSVCGMAFRVKDSQKAYNRALELGAQPIHIDTGPMELNLPAIKGIGGAPLYLIDRFGEGSSIYDIDFVYLEGVERNPVGAGLKVIDHLTHNVYRGRMVYWANFYEKLFNFREARYFDIKGEYTGLTSKAMSAPDGMIRIPLNEESSKGAGQIEEFLMQFNGEGIQHVAFLTDDLVKTWDALKKIGMRFMTAPSDSYYEMLEGRLPDHGEPVDQLQARGILLDGSSVEGDKRLLLQIFSETLMGPVFFEFIQRKGDDGFGPDSFKVLFESKERDQVRRGVLTAD
modifications: mutant HPPD polypeptide
Residual activity [1]: 45%
Residual turnover [2]: 69%
Residual activity [3]: 94%
Residual turnover [4]: 94%
Residual activity [5]: n.i. (no inhibition was observed under the given conditions)
Residual turnover [6]: n.i.
Residual activity [7]: 88%
Residual turnover [8]: 92%

B2: 17 (protein)
chain: MADLYENPMGLMGFEFIEFASPTPGTLEPIFEIMGFTKVATHRSKNVHLYRQGEINLILNNEPNSIASYFAAEHGPSVCGMAFRVKDSQKAYNRALELGAQPIHIDTGPMELNLPAIKGIGGAPLYLIDRFGEGSSIYDIDFVYLEGVERNPVGAGLKVIDHLTHNVYRGRMVYWANFYEKLFNFREARYFDIKGEYTGLTSKAMSAPDGMIRIPLNEESSKGAGQIEEFLMQFNGEGIQHVAFLTDDLVKTWDALKKIGMRFMTAPGDEYYEMLEGRLPDHGEPVDQLQARGILLDGSSVEGDKRLLLQIFSETLMGPVFFEFIQRKGDDGFGPDSFKVLFESVERDQVRRGVLTAD
modifications: mutant HPPD polypeptide
Residual activity [1]: 43%
Residual turnover [2]: 68%
Residual activity [3]: 90%
Residual turnover [4]: 90%
Residual activity [5]: n.i. (no inhibition was observed under the given conditions)
Residual turnover [6]: 95%
Residual activity [7]: 85%
Residual turnover [8]: 90%
Residual activity [9]: 29%
Residual turnover [10]: 54%

B3: 18 (protein)
chain: MADLYENPMGLMGFEFIEFASPTPGTLEPIFEIMGFTKVATHRSKNVHLYRQGEINLILNNEPNSIASYFAAEHGPSVCGMAFRVKDSQKAYNRALELGAQPIHIDTGPMELNLPAIKGIGGAPLYLIDRFGEGSSIYDIDFVYLEGVERNPVGAGLKVIDHLTHNVYRGRMVYWANFYEKLFNFREARYFDIKGEYTGLTSKAMSAPDGMIRIPLNEESSKGAGQIEEFLMQFNGEGIQHVAFLTDDLVKTWDALKKIGMRFRTAPPDTYYEMLEGRLPDHGEPVDQLQARGILLDGSSVEGDKRLLLQIFSETLMGPVFFEFIQRKGHDGFGPDSFKVLFESIERDQVRRGVLTAD
modifications: mutant HPPD polypeptide
Residual activity [1]: 67%
Residual turnover [2]: 79%
Residual activity [3]: n.i. (no inhibition was observed under the given conditions)
Residual turnover [4]: n.i.
Residual activity [5]: n.i. (no inhibition was observed under the given conditions)
Residual turnover [6]: n.i.

B4: 33 (protein)
chain: MADLYENPMGLMGFEFIEFASPTPGTLEPIFEIMGFTKVATHRSKNVHLYRQGEINLILNNEPNSIASYFAAEHGPSVCGMAFRVKDSQKAYNRALELGAQPIHIDTGPMELNLPAIKGIGGAPLYLIDRFGEGSSIYDIDFVYLEGVERNPVGAGLKVIDHLTHNVYRGRMVYWANFYEKLFNFREARYFDIKGEYTGLTSKAMSAPDGMIRIPLNEESSKGAGQIEEFLMQFNGEGIQHVAFLTDDLVKTWDALKKIGMRFMTAPGDEYYEMLEGRLPDHGEPVDQLQARGILLDGSSVEGDKRLLLQIFSETLMGPVFFEFIQRKGDDGFGPDSFKRLFESVERDQVRRGVLTAD
modifications: mutant HPPD polypeptide
Residual activity [9]: 40%
Residual turnover [10]: 65%

B5: 60 (protein)
chain: MADLYENPMGLMGFEFIEFASPTPGTLEPIFEIMGFTKVATHRSKNVHLYRQGEINLILNNEPNSIASYFAAEHGPSVCGMAFRVKDSQKAYNRALELGAQPIHIDTGPMELNLPAIKGIGGAPLYLIDRFGEGSSIYDIDFVYLEGVERNPVGAGLKVIDHLTHNVYRGRMVYWANFYEKLFNFREARYFDIKGEYTGLTSKAMSAPDGMIRIPLNEESSKGAGQIEEFLMQFNGEGIQHVAFLTDDLVKTWDALKKIGMRFRTAPGDEYYEMLEGRLPDHGEPVDQLQARGILLDGSSVEGDKRLLLQIFSETLMGPVFFEFIQRKGHDGFGPDSFKVLFEQVERDQVRRGVLTAD
modifications: mutant HPPD polypeptide
Residual activity [9]: 64%
Residual turnover [10]: 84%

B6: 36 (protein)
chain: MADLYENPMGLMGFEFIEFASPTPGTLEPIFEIMGFTKVATHRSKNVHLYRQGEINLILNNEPNSIASYFAAEHGPSVCGMAFRVKDSQKAYNRALELGAQPIHIDTGPMELNLPAIKGIGGAPLYLIDRFGEGSSIYDIDFVYLEGVERNPVGAGLKVIDHLTHNVYRGRMVYWANFYEKLFNFREARYFDIKGEYTGLTSKAMSAPDGMIRIPLNEESSKGAGQIEEFLMQFNGEGIQHVAFLTDDLVKTWDALKKIGMRFRTAPGDEYYEMLEGRLPDHGEPVDQLQARGILLDGSSVEGDKRLLLQIFSETLMGPVFFEFIQRKGHDGFGPDSFKVLFESMERDQVRRGVLTAD
modifications: mutant HPPD polypeptide
Residual activity [9]: 67%
Residual turnover [10]: 85%

B7: 8 (protein)
chain: MADLYENPMGLMGFEFIEFASPTPGTLEPIFEIMGFTKVATHRSKNVHLYRQGEINLILNNEPNSIASYFAAEHGPSVCGMAFRVKDSQKAYNRALELGAQPIHIDTGPMELNLPAIKGIGGAPLYLIDRFGEGSSIYDIDFVYLEGVERNPVGAGLKVIDHLTHNVYRGRMVYWANFYEKLFNFREARYFDIKGEYTGLTSKAMSAPDGMIRIPLNEESSKGAGQIEEFLMQFNGEGIQHVAFLTDDLVKTWDALKKIGMRFMTAPPDTYYEMLEGRLPDHGEPVDQLQARGILLDGSSVEGDKRLLLQIFSETLMGPVFFEFIQRKGDDGFGPDSFKVLFESIERDQVRRGVLTAD
modifications: mutant HPPD polypeptide
Residual activity [1]: 21%
Residual turnover [2]: 44%
Residual activity [3]: 67%
Residual turnover [4]: 74%
Residual activity [5]: 91%
Residual turnover [6]: 95%
Residual activity [7]: 70%
Residual turnover [8]: 85%

B8: 31 (protein)
chain: MADLYENPMGLMGFEFIEFASPTPGTLEPIFEIMGFTKVATHRSKNVHLYRQGEINLILNNEPNSIASYFAAEHGPSVCGMAFRVKDSQKAYNRALELGAQPIHIDTGPMELNLPAIKGIGGAPLYLIDRFGEGSSIYDIDFVYLEGVERNPVGAGLKVIDHLTHNVYRGRMVYWANFYEKLFNFREARYFDIKGEYTGLTSKAMSAPDGMIRIPLNEESSKGAGQIEEFLMQFNGEGIQHVAFLTDDLVKTWDALKKIGMRFMTAPGDEYYEMLEGRLPDHGEPVDQLQARGILLDGSSVEGDKRLLLQIFSETLMGPVFFEFIQRKGDDGFGPHSFKVLFESVERDQVRRGVLTAD
modifications: mutant HPPD polypeptide
Residual activity [1]: 40%
Residual turnover [2]: 67%
Residual activity [3]: 95%
Residual turnover [4]: n.i.
Residual activity [5]: n.i. (no inhibition was observed under the given conditions)
Residual turnover [6]: n.i.
Residual activity [7]: 83%
Residual turnover [8]: n.i.
Residual activity [9]: 50%
Residual turnover [10]: 81%
